How the values were obtained:
[1] = target: G. haemolysans IgA1P-E1848A (residues 907-2201) (Gemella haemolysans); assay: ELISA; metallo-IgA1P mutant coated on Nunc MaxiSorp plate (20 nM by the methods, 100 nM by the legend of Fig. 2d), blocked 2 h at room temperature, human IgA1 with kappa LC added for 2 h, detected with anti-human IgA HRP and ABTS; estimated Kd
[2] = target: S. pneumoniae IgA1P-E1605A (Streptococcus pneumoniae) (UniProt Q59947); assay: as above

In the case of “Human IgA1 with kappa LC (monomeric) (antibody)”, the Kd [1] is reported as 1090 µM and the Kd [2] is reported as 798 µM.

Reference: paper PMC9637739
